From US20260146073A1 (published 2026) come the findings set out here.

For experiment [1], the target named is T1, mutated CDKN2A, frameshift (p16INK4a -1 or +2 indels between M54 and W100); p14ARF -2 or +1 indels between G69 … (human).
T1 peptide: AVCPWTWLR
In words: multimer staining.

The target of experiment [2] is T2, mutated CDKN2A, frameshift (p16INK4a -1 or +2 indels between M54 and W100); p14ARF -2 or +1 indels between G69 … (human).
T2 peptide: AVCPWTWLR
In words: cytokine release.

The target of experiment [3] is T2, mutated CDKN2A, frameshift (p16INK4a -1 …). In words: multimer staining.
The target of experiment [4] is T3, WT p16INK4a (CDKN2A) peptide on HLA-A*02:01 (human).
T3 peptide: LPVDLAEEL
The experiment can be described thus: cytokine release.

For experiment [5], the target named is T4, WT p16INK4a (CDKN2A) peptide on HLA-A*02:01 (human).
T4 peptide: RLPVDLAEEL
In words: cytokine release.

B1: 1913 TCR-41BB (TCR, V domains shown)
Valpha: ELKVEQNPLFLSMQEGKNYTIYCNYSTTSDRLYWYRQDPGKSLESLFVLLSNGAVKQEGRLMASLDTKARLSTLHITAAVHDLSATYFCAVDPTGANSKLTFGKGITLSVRP
Vbeta: GVTQTPKHLITATGQRVTLRCSPRSGDLSVYWYQQSLDQGLQFLIQYYNGEERAKGNILERFSAQQFPDLHSELNLSSLELGDSALYFCASSVAISGEETQYFGPGTRLLVL
Turning to B1, the binding result in experiment [1] and in experiment [2] was “recognises” in each case.

B2: 3333 TCR-A (TCR, V domains shown)
Valpha: QKEVEQNSGPLSVPEGAIASLNCTYSDRGSQSFFWYRQYSGKSPELIMSIYSNGDKEDGRFTAQLNKASQYVSLLIRDSQPSDSATYLCAVNTASGTYKYIFGTGTRLKVLA
Vbeta: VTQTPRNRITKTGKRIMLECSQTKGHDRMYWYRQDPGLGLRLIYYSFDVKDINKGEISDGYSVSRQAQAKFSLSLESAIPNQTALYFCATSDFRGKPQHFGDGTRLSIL
Regarding B2, the binding result in experiment [3] is reported as “recognises”.

B3: 3333 TCR-C (TCR, V domains shown)
Valpha: QKEVEQNSGPLSVPEGAIASLNCTYSDRGSQSFFWYRQYSGKSPELIMSIYSNGDKEDGRFTAQLNKASQYVSLLIRDSQPSDSATYLCAVNRAREAAGNKLTFGGGTRVLVKP
Vbeta: DIYQTPRYLVIGTGKKITLECSQTMGHDKMYWYQQDPGMELHLIHYSYGVNSTEKGDLSSESTVSRIRTEHFPLTLESARPSHTSQYLCASSRPGSEKLFFGSGTQLSVL
Regarding B3, the binding result in experiment [3] was “recognises”.

B4: 4286 TCR 10-2 (TCR, V domains shown)
Valpha: QKEVEQNSGPLSVPEGAIASLNCTYSDRGSQSFFWYRQYSGKSPELIMFIYSNGDKEDGRFTAQLNKASQYVSLLIRDSQPSDSATYLCAVPNSGYSTLTFGKGTMLLVSP
Vbeta: GVTQSPTHLIKTRGQQVTLRCSPISGHKSVSWYQQVLGQGPQFIFQYYEKEERGRGNFPDRFSARQFPNYSSELNVNALLLGDSALYLCASRTGTVTNSYNEQFFGPGTRLTVL
Regarding B4, the binding result in experiment [4] and in experiment [5] was “no recognition” in each case.

B5: 4286 TCR 10-3 (TCR, V domains shown)
Valpha: QSVSQHNHHVILSEAASLELGCNYSYGGTVNLFWYVQYPGQHLQLLLKYFSGDPLVKGIKGFEAEFIKSKFSFNLRKPSVQWSDTAEYFCAVKDTGFQKLVFGTGTRLLVSP
Vbeta: GAVVSQHPSWVICKSGTSVKIECRSLDFQATTMFWYRQFPKQSLMLMATSNEGSKATYEQGVEKDKFLINHASLTLSTLTVTSAHPEDSSFYICSARGGRNSFEQFFGPGTRLTVL
As for B5, the binding result in experiment [4] and in experiment [5] was “no recognition” each time.

B6: 4286 TCR 10-4 (TCR, V domains shown)
Valpha: QSVSQHNHHVILSEAASLELGCNYSYGGTVNLFWYVQYPGQHLQLLLKYFSGDPLVKGIKGFEAEFIKSKFSFNLRKPSVQWSDTAEYFCAVKDTGFQKLVFGTGTRLLVSP
Vbeta: GAVVSQHPSWVICKSGTSVKIECRSLDFQATTMFWYRQFPKQSLMLMATSNEGSKATYEQGVEKDKFLINHASLTLSTLTVTSAHPEDSSFYICSARGGARSYEQYFGPGTRLTVT
With B6, the binding result in experiment [4] and in experiment [5] was “no recognition” throughout.

B7: 4286 TCR 10-1 (TCR, V domains shown)
Valpha: QKEVEQNSGPLSVPEGAIASLNCTYSDRGSQSFFWYRQYSGKSPELIMFIYSNGDKEDGRFTAQLNKASQYVSLLIRDSQPSDSATYLCAVKSWVIFGKGTRLHILP
Vbeta: GVTQSPTHLIKTRGQQVTLRCSPISGHKSVSWYQQVLGQGPQFIFQYYEKEERGRGNFPDRFSARQFPNYSSELNVNALLLGDSALYLCASSPSAQSSYGYTFGSGTRLTVV
Turning to B7, the binding result in experiment [4] and in experiment [5] was “no recognition” each time.
